Assay [1] has as its target SARS-CoV-2 S蛋白 (on live virus, 江苏分离株 BetaCoV/JS03/human/2020) (SARS-CoV-2, UniProt P0DTC2 14-1273). As to the kind of experiment: cell-based or functional assay.
The target of assay [2] is 重组SARS-CoV-2刺突蛋白胞外区 (extra cellular domain of spike protein, S-ECD) (SARS-CoV-2, UniProt P0DTC2 14-1213). Kind of assay: SPR, Biacore 8K, S-ECD immobilised on a CM5 chip, antibody injected at 125nM~7.8nM. (In general: In SPR one partner is held on a chip, and binding of the other changes the refractive index at the surface.)
Assay [3] shares this target. The assay is described as above. The source holds these as a separate data set.

B1: FC05 (antibody, V domains shown)
VH: VQLLEQSGAEVKKPGASVRVSCKVSGYTLPEVAMHWVRQAPGKGLEWMGGFDPEDGETIYAQKFQGRVTMTEDTSTDTAYMELSSLRSEDTAVYYCATTTPFSSSFWFDPWGQGTLVTVSS
VL: QSVLTQAPSVSGAPGQKVTISCSGSSSNIGNNYVSWYQQLPGTAPKLLIYDNNKRPSGIPDRFSGSKSGTSATLGITGLQTGDEADYYCGTWDSSLSAVVFGGGTKLTVL
For B1, the “IC50 (体外中和实验, live SARS-CoV-2 on Vero E6 cells, cytopathic effect)” value in assay [1] came out at 0.142 µg/mL.

B2: FC08 (antibody, V domains shown)
VH: VQLLQQSGAEVKKPGSSVKVSCKASGGTFSSYAISWVRQAPGQGLEWMGGIIPILGIANYAQKFQGRVTITADKSTSTAYMELSSLRSEDTAVYYCVRERGYSGYGAAYYFDYWGQGTLVTVSS
VL: QSVLTQPPSVSGAPGQRVTISCTGSSSNIGAGYDVHWYQQLPGTAPKLLIYGNSNRPSGVPDRFSGSKSGTSASLAITGLQAEDEADYYCQSYDSSLSGSVFGGGTKLTVL
For the molecule B2, the Kd – broadly, a measure of binding affinity in units of concentration – in assay [2] came to 800 pM.

B3: FC11 (antibody, V domains shown)
VH: EVQLLESGGGVVQPGRSLRLSCAASGFTFSYYGMHWVRQAPGTGLEWVAVISYDGSNEYYADSVKGRFTISRDNSKNTLYLQMNSLRAEDTAVYYCAKAMFLGDSSGLTGLDMDVWGQGTTVTVSS
VL: DIELTQSPGTLSLSPGERATLSCRASQSVSSYLAWYQQKPGQAPRLLIYDASNRATGIPARFSGSGSGTDFTLTISSLEPEDFALYYCQQRGNWPPTFGGGTKLEIK
notes: also called FC11抗体
In assay [3], B3 came in with a Kd of 500 pM.

The values are drawn from patent CN111662379A (JIANGSU DISEASE CONTROL AND PREVENTION CENTER JIANGSU …, dated 2020).
